Biological target: T1, WT RBD (Wuhan SARS-CoV-2 RBD) (Severe acute respiratory syndrome …, UniProt P0DTC2)
T1 construct: also called Wuhan RBD; native RBD
Experiment: crystal structure
Details: both partners purified

B1: EY6A Fab (Fab, V domains shown)
VH: EVQLVESGGGVVQPGRSLRLSCAASAFTFSSYDMHWVRQAPGKGLEWVAVISYDGSNKYYADSVKGRFTISRDNSKNTLYLQMNSLRAEDTAVYYCAKDGGKLWVYYFDYWGQGTLVTVSS
VL: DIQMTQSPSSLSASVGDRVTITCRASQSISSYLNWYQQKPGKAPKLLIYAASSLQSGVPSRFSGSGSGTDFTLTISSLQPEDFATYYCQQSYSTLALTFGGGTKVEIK
B1: binds.
